The values below are quoted from earlier work in patent publication US6878743B2, “Small molecule inhibitors of caspases” (Sunesis Pharmaceuticals, Inc., priority 2001, dated 2005).

One data set has as its target T1, caspase-1 (Homo sapiens, UniProt P29466).
T1 sequence (P29466 120-297 limits assumed): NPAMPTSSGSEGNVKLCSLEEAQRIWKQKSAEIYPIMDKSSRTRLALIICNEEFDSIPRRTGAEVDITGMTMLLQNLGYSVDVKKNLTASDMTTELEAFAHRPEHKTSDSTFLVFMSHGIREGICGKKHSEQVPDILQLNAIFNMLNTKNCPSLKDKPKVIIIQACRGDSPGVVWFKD
T1 sequence (P29466 317-404 limits assumed): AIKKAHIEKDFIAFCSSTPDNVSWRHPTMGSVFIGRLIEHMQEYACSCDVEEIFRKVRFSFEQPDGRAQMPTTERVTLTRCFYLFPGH
The note with it: Garcia-Calvo et al. 1998.

Another data set addresses T2, caspase-3 (Homo sapiens, UniProt P42574).
T2 sequence (P42574 29-175 limits assumed): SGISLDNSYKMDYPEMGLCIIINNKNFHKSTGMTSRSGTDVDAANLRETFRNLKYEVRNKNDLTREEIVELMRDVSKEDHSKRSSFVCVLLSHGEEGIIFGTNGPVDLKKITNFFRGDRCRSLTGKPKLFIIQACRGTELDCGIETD
T2 sequence (P42574 176-277 limits assumed): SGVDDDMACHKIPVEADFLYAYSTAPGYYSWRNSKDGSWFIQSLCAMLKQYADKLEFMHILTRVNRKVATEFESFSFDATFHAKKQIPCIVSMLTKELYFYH
The note with it: Garcia-Calvo et al. 1998.

pKi: −log10 of the molar value.

On to Ac-Asp-Glu-Val-Asp-CHO, for which the pKi with caspase-1 was 7.74.

Turning to Ac-Tyr-Val-Ala-Asp-CHO, the values for the negative-log Ki (pKi) with caspase-3 and with caspase-1 were 5.71 and 10.25, respectively.
